Experiments:
[1] = target: T1, human C1q complement protein (human, UniProt P02745 23-245; P02746 28-253; P02747 29-245); assay: ELISA: antibody coated on the plate, human C1q, anti-C1q antibody, HRP conjugate, OD450
T1 construct: Bought protein ('Quidal, SanDiego')
Description: ELISA for C1q Binding: Microtiter plates were coated with 50 μl of test antibody at concentration range from 20 μg/ml to […] and incubated at 4° C. overnight. The plate was then blocked with 5% nonfat powdered milk for 60 min at 37° C. 50 μl of 5 μg/ml human C1q complement protein (Quidal, SanDiego) was added to each well and inclubated for 60 min at 37° C. 50 μl of 1:1000 dilution of anti-complement C1q antibody (Biodesign) was added to each well and incubated for 60 min at 37° C. 50 μl of 1:1000 dilution of donkey anti-sheep/goat antibody-conjugated HRP (PIERCE) was added to each well and incubated for 60 min at 37° C. Detection was carried out by adding 30 μl of tetramethylbenzidine (TMB) substrate (Pierce) followed by neutralization with 30 μl of 0.2 M H₂SO₄. The absorbance was read at 450 nm.

[2] = target: T2, FcγRIIIA-streptavidin fusion protein (tetramer) (human; Streptomyces avidinii, UniProt P08637 17-208); assay: ELISA: antibody captured on protein A/G, FcγRIIIA tetramer, biotin-HRP, OD450
T2 construct: extracellular domain; also called FcγRIIIA tetramer; Fcγtetramer; not shown: streptavidin, amplified with primers SA1/SA2 from genomic DNA of Streptomyces avidinii
Description: ELISA for FcγRIIIA Tetramer Binding: Microtiter plates were coated with protein A/G (PIERCE) solution (0.25 μg/ml) and incubated at 4° C. overnight. The plates were then washed with PB S/0.1% Tween and any remaining binding sites were blocked with 1% BSA. 50 μl of test antibody at 1:1 dilution (from 5000 ng/ml to 4.9 ng/ml), was added to each well and inclubated for 60 min at 37° C. 50 μl of 1:500 dilution of the Fcγtetramer was added to each well and incubated for 60 min at 37° C. followed by washing. 50 μl of 1:1000 dilution of biotin-conjugated HRP (PIERCE) was added to each well and incubated for 30 min at 37° C. Detection was carried out by adding 30 μl of tetramethylbenzidine (TMB) substrate (Pierce) followed by neutralization with 30 μl of 0.2 M H₂SO₄. The absorbance was read at 450 nm.

[3] = target: T3, FcγRIIIA (soluble receptor used as analyte in the BIAcore runs) (human, UniProt P08637 17-208); assay: SPR (BIAcore 3000), IgG amine-coupled to CM5, soluble FcγRIIIA injected; steady-state isotherm; Run 3
T3 construct: extracellular domain; The BIAcore methods only say 'FcγRIIIA'; also called FcγIIIA
Description: (§1) FcγRIIIA was serially diluted in 0.01 M HEPES pH 7.4 containing 0.15 M NaCl, 3 mM EDTA and 0.005% P20, at concentrations ranging from 16 uM down to 7.8 nM. Duplicate injections of each concentration were made. All binding experiments were performed at 25° C., and at a flow rate of 10 uL/min. Binding was monitored for 25 min. Following each injection of FcγRIIIA, the IgG surfaces were regenerated with a 30 sec. pulse of 5 mM HCl. FcγRIIIA was also passed over a blank reference cell which is connected, in series, to the IgG-containing flow cells. The steady-state binding curves were also corrected for injection artifacts by subtraction of buffer injections. This doubly-corrected data was then fit to a steady-state isotherm provided by the instrument manufacturer (Pharmacia Biosensor, Uppsala, Sweden) to derive the respective equilibrium binding constants (KD). Separately, a Scatchard plot of the Req data from each IgG surface was constructed to confirm the results of the binding isotherms.

[4] = target: T3, FcγRIIIA (soluble receptor used as …); assay: SPR (BIAcore 3000), IgG amine-coupled to CM5, soluble FcγRIIIA injected; Scatchard plot of Req; Run 3
Description: as §1

[5] = target: T3, FcγRIIIA (soluble receptor used as …); assay: SPR (BIAcore 3000), Run 3; calculated from isotherm KD values against wild type 3F2
Description: as §1

T1 sequence (P02745 23-245 limits assumed, chain 1 of 3): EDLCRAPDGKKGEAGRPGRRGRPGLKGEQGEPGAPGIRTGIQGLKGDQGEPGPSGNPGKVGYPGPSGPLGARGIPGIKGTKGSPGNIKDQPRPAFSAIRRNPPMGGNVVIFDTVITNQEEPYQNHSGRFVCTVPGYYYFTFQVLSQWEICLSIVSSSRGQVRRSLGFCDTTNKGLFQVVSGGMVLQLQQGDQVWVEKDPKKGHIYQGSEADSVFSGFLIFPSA
T1 sequence (P02746 28-253 limits assumed, chain 2 of 3): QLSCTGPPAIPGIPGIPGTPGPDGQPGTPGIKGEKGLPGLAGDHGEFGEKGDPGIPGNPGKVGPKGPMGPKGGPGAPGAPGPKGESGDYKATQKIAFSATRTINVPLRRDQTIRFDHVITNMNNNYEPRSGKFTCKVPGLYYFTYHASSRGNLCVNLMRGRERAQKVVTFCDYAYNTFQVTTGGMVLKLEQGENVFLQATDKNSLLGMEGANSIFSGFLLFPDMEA
T1 sequence (P02747 29-245 limits assumed, chain 3 of 3): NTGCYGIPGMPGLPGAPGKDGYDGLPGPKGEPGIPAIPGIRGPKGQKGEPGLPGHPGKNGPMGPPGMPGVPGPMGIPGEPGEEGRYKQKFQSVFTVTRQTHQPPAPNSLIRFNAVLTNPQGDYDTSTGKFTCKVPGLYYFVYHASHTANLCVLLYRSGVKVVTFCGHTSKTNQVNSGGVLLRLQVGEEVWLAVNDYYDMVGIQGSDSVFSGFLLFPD
T3 sequence (P08637 17-208): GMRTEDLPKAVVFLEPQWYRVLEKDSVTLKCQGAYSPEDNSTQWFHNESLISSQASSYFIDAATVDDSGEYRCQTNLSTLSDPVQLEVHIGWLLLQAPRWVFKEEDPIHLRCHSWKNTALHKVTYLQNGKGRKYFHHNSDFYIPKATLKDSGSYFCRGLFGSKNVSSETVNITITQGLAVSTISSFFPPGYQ
T2 sequence (P08637 17-208 limits assumed): as the sequence (P08637 17-208) above

Binder	binding result [1]	EC50 (read off the curve) [2]	Kd [3]	Kd [4]	Fold increase over WT [5]
3F2 (wild type anti-EphA2 antibody, IgG1) (antibody, domain: IgG1 heavy chain constant region; 3F2 variable regions placed in the Vitaxin® IgG1 plasmid and made in NS0 cells; The light chain constant region is not described; also called 3F2-wt; 3F2-WT; copies: 2 + 2) heavy: not shown VL: AIQLTQSPSSLSASVGDRVTITCRASQSISNNLHWYLQKPGQSPQLLIYYGFQSISGVPSRFSGSGSGTDFTLTISSLQPEDFATYYCQQANSWPLTFGGGTKLEIK	binds	~200 ng/mL	15600 nM	14200 nM	–
3F2-3M (3F2 Fc variant S239D/A330L/I332E, IgG1) (antibody, name in EU numbering, domain: IgG1 heavy chain constant region; Made in NS0 cells; The light chain constant region is not described; also called 3F2 S239D/A330L/I332E; 3M Fc variant; copies: 2 + 2) heavy: EVQLVESGGGVVRPGGSLRLSCAASGFTVSDYSMNWVRQAPGKGLEWIGFIRNKANAYTTEYSASVKGRFTISRDDSKNTLYLQMNSLKTEDTAVYYCTTYPRYHAMDSWGQGTMVTVSSASTKGPSVFPLAPSSKSTSGGTAALGCLVKDYFPEPVTVSWNSGALTSGVHTFPAVLQSSGLYSLSSVVTVPSSSLGTQTYICNVNHKPSNTKVDKKVEPKSCDKTHTCPPCPAPELLGGPDVFLFPPKPKDTLMISRTPEVTCVVVDVSHEDPEVKFNWYVDGVEVHNAKTKPREEQYNSTYRVVSVLTVLHQDWLNGKEYKCKVSNKALPLPEEKTISKAKGQPREPQVYTLPPSRDELTKNQVSLTCLVKGFYPSDIAVEWESNGQPENNYKTTPPVLDSDGSFFLYSKLTVDKSRWQQGNVFSCSVMHEALHNHYTQKSLSLSPGK VL: AIQLTQSPSSLSASVGDRVTITCRASQSISNNLHWYLQKPGQSPQLLIYYGFQSISGVPSRFSGSGSGTDFTLTISSLQPEDFATYYCQQANSWPLTFGGGTKLEIK	binds	~50 ng/mL	158 nM	162 nM	99 fold
3F2-1M (3F2 Fc variant I332E, IgG1) (antibody, name in EU numbering, domain: IgG1 heavy chain constant region; Made in NS0 cells; The light chain constant region is not described; also called 3F2 I332E; 3F2-IM; copies: 2 + 2) heavy: not shown VL: AIQLTQSPSSLSASVGDRVTITCRASQSISNNLHWYLQKPGQSPQLLIYYGFQSISGVPSRFSGSGSGTDFTLTISSLQPEDFATYYCQQANSWPLTFGGGTKLEIK	binds	~50 ng/mL	1770 nM	1680 nM	8.8 fold
